Patent US20150252107A1, “APLNR Modulators and Uses Thereof” (Regeneron Pharmaceuticals, Inc., priority 2013, published 2015)
Values joined by “and” are separate entries in the source; they are usually repeats but may differ in a detail not shown here. Identical values can stand only once. “Also recorded” adds a separate entry of the source. Blank lines part the entries; values can stand above or below the molecule they belong to. No end group written: not given here.

Assays:
hAPLNR [1] = biological target: T1, hAPLNR (Homo sapiens, UniProt P35414); assay: CRE assay of modified apelin peptides in HEK293/CRE-luc/hAPLNR cells; format: cell-based; conditions: Table 9; 5 μM forskolin
T1 construct: expressed in transfected cells
T1 sequence (P35414 1-380): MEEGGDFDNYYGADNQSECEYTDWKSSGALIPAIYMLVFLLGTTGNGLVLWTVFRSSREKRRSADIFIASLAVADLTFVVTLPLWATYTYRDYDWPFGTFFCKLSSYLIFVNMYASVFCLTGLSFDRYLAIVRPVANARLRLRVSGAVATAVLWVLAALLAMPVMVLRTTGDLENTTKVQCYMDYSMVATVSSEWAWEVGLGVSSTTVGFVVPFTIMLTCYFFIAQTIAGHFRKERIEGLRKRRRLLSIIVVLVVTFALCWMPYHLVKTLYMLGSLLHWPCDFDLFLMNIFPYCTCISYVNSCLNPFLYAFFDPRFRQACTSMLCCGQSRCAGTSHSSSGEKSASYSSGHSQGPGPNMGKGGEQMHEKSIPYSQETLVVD
Procedure: After 5 hours of incubation at 37° C. in 5% CO2, luminescence was measured following the addition of One Glo reagent (Promega, #E6051) using a Victor X instrument (Perkin Elmer). The data were fit by nonlinear regression to a 4-parameter logistic equation with Prism 5 software (GraphPad).

HEK293 parental cells = assay: FACS binding to HEK293 parental cells; conditions: 10 μg/mL antibody
Procedure: Binding ratios for human APLNR binding to purified anti-APLNR monoclonal antibodies were determined by a fluorescence-activated cell sorting (FACS) binding assay. […] The resulting stable cell lines, HEK293/CRE-luc/hAPLNR and HEK293/CRE-luc/MfAPLNR, were maintained in DMEM containing 10% FBS, NEAA, and penicillin/streptomycin with either 100 μg/mL Hygromycin B for hAPLNR cells or 500 μg/mL G418 for MfAPLNR cells.
For the FACS analysis, HEK293 parental, HEK293/CRE-luc/hAPLNR, and, HEK293/CRE-luc/mfAPLNR cells were dissociated using Enzyme Free Dissociation reagent (#S-004, Millipore, Billerica, Mass., USA) and 10^6 cells/well were plated onto 96-well v-bottom plates in PBS containing 1% FBS. […] Cells were then filtered and analyzed on Accuri Flow Cytometer (BD Biosciences, San Jose, Calif., USA). Unstained and secondary antibody alone controls were also tested for binding to all cell lines. […] Geometric mean (Geom. mean) of fluorescence for each antibody was then normalized to geometric mean of unstained cells to obtain relative binding of antibody (binding ratios) per each cell type: HEK293 (parental), HEK293/CRE-luc/hAPLNR and HEK293/CRE-luc/MfAPLNR.

hAPLNR [2] = biological target: T1, hAPLNR; assay: cyclic AMP (CRE-luciferase) assay, activation of hAPLNR in HEK293/CRE-luc/hAPLNR cells; format: cell-based; conditions: % of maximum Apelin activation, without Apelin
Procedure: The ability of anti-APLNR antibodies to activate hAPLNR-mediated cell signaling was measured using a cyclic AMP assay. The hAPLNR is a 7-transmembrane G-protein coupled receptor (GPCR).
The resulting cell line, HEK293/CRE-luc/hAPLNR, was maintained in DMEM containing 10% FBS, NEAA, penicillin/streptomycin, and 100 μg/mL Hygromycin B.
Testing of antibodies included a no antibody control.
The results of all assays were analyzed using nonlinear regression (4-parameter logistics) within Prism 5 software (GraphPad).

[3] = biological target: T2, human APLNR (humanized APLNR mice) (Homo sapiens, UniProt P35414); assay: retinal vascular development (RVD) model in humanized APLNR mouse pups; format: in vivo
T2 construct: homozygous for expression of human APLNR in place of mouse APLNR (humanized APLNR mice); from tissue; host or cells: living humanized APLNR mouse pups (75% C57BL6 / 25% Sv129); read-out in the retina
T2 sequence (P35414 1-380): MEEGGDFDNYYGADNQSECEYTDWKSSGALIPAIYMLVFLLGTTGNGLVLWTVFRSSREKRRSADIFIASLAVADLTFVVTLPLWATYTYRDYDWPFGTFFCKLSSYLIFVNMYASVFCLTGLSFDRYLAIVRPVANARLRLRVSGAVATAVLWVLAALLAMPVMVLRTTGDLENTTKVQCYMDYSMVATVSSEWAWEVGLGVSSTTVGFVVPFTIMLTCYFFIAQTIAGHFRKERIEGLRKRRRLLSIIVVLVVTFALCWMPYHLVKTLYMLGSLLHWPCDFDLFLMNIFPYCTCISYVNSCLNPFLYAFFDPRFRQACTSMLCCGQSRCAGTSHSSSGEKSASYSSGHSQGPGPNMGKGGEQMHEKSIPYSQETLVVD
Procedure: To assess the in vivo characteristics of select anti-APLNR antibodies of the invention, their ability to block APLNR-mediated angiogenesis in the eye vasculature was measured.
A retinal vascular development (RVD) model was used to evaluate the effects of an antagonistic anti-APLNR antibody on blood vessel outgrowth in the normal developing retina of mouse pups that were of a mixed background strain (75% C57BL6 and 25% Sv129) and homozygous for expression of human APLNR in place of mouse APLNR (humanized APLNR mice). Pups were subcutaneously injected on postnatal day 2 (P2) with either 50 mg/kg of an anti-APLNR antagonist antibody, H2aM9232N, or an irrelevant human Fc (hFc) control. Reagents were masked and labeled as Solution A and Solution B to prevent experimenter bias. At postnatal day 5, tissue samples were collected and then fixed in PBS containing 4% paraformaldehyde. Fixed tissue samples were washed with PBS three times for 15 minutes, and subsequently stained with GS Lectin I (Vector Laboratories, #FL-1101) diluted 1:200 in 1×PBS containing 1% BSA in 0.25% Triton-X 100 overnight at 25° C. to visualize retinal vasculature. The following day, stained samples were rinsed with PBS three times for 15 minutes each, flat-mounted onto slides, and coverslips were subsequently mounted using Prolong Gold (Invitrogen, #P36930). Images were taken at 20 times magnification using an epi-fluorescent microscope (Nikon Eclipse 80). The vascularized areas in the retina were measured from acquired images from this assay using Adobe Photoshop CS6 extended. Statistical differences between the results obtained from the IgG control antibody and H2aM9232N treated samples were assessed using a two tailed, unpaired Student T-test (**, p<0.001). Only after retinal vasculature area measurements and statistical analysis were completed, the sample identities were unmasked.

Molecule: CSCC[C@H](NC(=O)[C@@H]1CCCN1C(=O)CNC(=O)[C@H](CCCCN)NC(=O)[C@H](Cc1c[nH]cn1)NC(=O)[C@H](CO)NC(=O)[C@H](CC(C)C)NC(=O)[C@H](CCCNC(=N)N)NC(=O)[C@@H]1CCCN1C(=O)[C@H](CCCNC(=N)N)NC(=O)[C@@H](N)CCC(N)=O)C(=O)N1CCC[C@H]1C(=O)N[C@@H](Cc1ccccc1)C(=O)NCC(=O)NCC(=O)NCC(=O)NCC(=O)NCC(=O)O [Apelin-13 + 5G]
EC50 (hAPLNR [1]): 0.147 nM

Molecule: CSCC[C@H](NC(=O)[C@@H]1CCCN1C(=O)CNC(=O)[C@H](CCCCN)NC(=O)[C@H](Cc1c[nH]cn1)NC(=O)[C@H](CO)NC(=O)[C@H](CC(C)C)NC(=O)[C@H](CCCNC(=N)N)NC(=O)[C@@H]1CCCN1)C(=O)N1CCC[C@H]1C(=O)N[C@@H](Cc1ccccc1)C(=O)O [Apelin-11, reference compound]
EC50 (hAPLNR [1]): 0.438 nM

B1: H2aM9232N: antagonistic anti-APLNR antibody, HCVR/LCVR SEQ ID NOs 98/106, mouse IgG2a Fc (antibody, V domains shown)
VH: QVKLVESGGGVVQPGRSLRLSCAASGFTFSNYVIHWVRQAPGKGLEWVAVIWYDGSNKYYADSVKGRFTISRDNSKNTLYLQMNSLRAEDTAVYYCARDRVVRGVDYYYYYGLDVWGQGTSVTVSS
VL: EIVMTQSPATLSVSPGERATLSCRASQSVRSNLAWYQQKPGQAPRLLIYGASSRATGIPARFSGTGSGTEFTLTISSLQSDDFAVYYCQQYNKWPRTFGQGTKVEIK
modifications: mouse IgG2a Fc
Binding Ratio of Geom. Mean to Unstained Cells, HEK293 Parental (HEK293 parental cells): 6
% Activation at 100 nM mAb (at 10 uM Forskolin) (hAPLNR [2]; Table 6A): No Activation
% Activation at 500 nM mAb (at […] Forskolin) (hAPLNR [2]; Table 6B): did not demonstrate any measurable activation; also recorded: No Activation
Retinal blood vessel outgrowth (mm^2), MEAN ([3]; 50 mg/kg s.c. on postnatal day 2, read at postnatal day 5): 2.84 mm^2
Retinal blood vessel outgrowth (mm^2), individual eye ([3]; 50 mg/kg s.c. on postnatal day 2, read at postnatal day 5, single eyes (OD/OS)): 2.49 mm^2 and 3.04 mm^2 and 3.57 mm^2 and 3.32 mm^2 and 2.23 mm^2 and 2.36 mm^2
mean reduction in retinal blood vessel outgrowth compared to control (hFc) ([3]; single s.c. injection 50 mg/kg, postnatal day 5): approximately 30%

Further molecules by falling EC50 (hAPLNR [1]), results first:

EC50 (hAPLNR [1]): 0.00519 nM
Molecule: CSCC[C@H](NC(=O)[C@@H]1CCCN1C(=O)CNC(=O)[C@H](CCCCN)NC(=O)[C@H](Cc1c[nH]cn1)NC(=O)[C@H](CO)NC(=O)[C@H](CC(C)C)NC(=O)[C@H](CCCNC(=N)N)NC(=O)[C@@H]1CCCN1C(=O)[C@@H](N)CCCNC(=N)N)C(=O)N1CCC[C@H]1C(=O)O [Apelin66-76]

EC50 (hAPLNR [1]): 0.00217 nM
Molecule: RPRLSHKGPM [Apelin66-75]
